Laboratory results: patent publication US10704030B2, “P450-BM3 variants with improved activity” (Codexis, Inc., priority 2015, dated 2020)

Tests used:
Type in all cases: biochemical
[1] = Validation of generalist properties: oxidation of diclofenac by lyophilized P450-BM3 variant, UPLC-MS; details: [Diclofenac] = 1 mM; for TON: TON = [substrate]*% conversion/[P450]
Summary of the method: (§1)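 Lyophilized lysate of E. coli-expressed P450-BM3 variant (stock standardized to 12 μM heme) was incubated 24 h at 30 °C with 1 or 2 mM substrate, 1.0 mM NADP+, 25 mM glucose, 0.5 mg/mL glucose dehydrogenase and 5% DMSO in 100 mM potassium phosphate. Acetonitrile-quenched samples were analyzed by UPLC-MS (positive ESI).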

[2] = Validation of generalist properties: oxidation of loratadine by lyophilized P450-BM3 variant, UPLC-MS; details: [Loratadine] = 1 mM; for TON: TON = [substrate]*% conversion/[P450]
Summary of the method: as §1

[3] = Validation of generalist properties: oxidation of imatinib by lyophilized P450-BM3 variant, UPLC-MS; details: [Imatinib] = 1 mM; for TON: TON = [substrate]*% conversion/[P450]
Summary of the method: as §1

[4] = Validation of generalist properties: oxidation of gefitinib by lyophilized P450-BM3 variant, UPLC-MS; details: [Gefitinib] = 1 mM; for TON: TON = [substrate]*% conversion/[P450]
Summary of the method: as §1

[5] = Validation of generalist properties over the four substrates screened
Procedure: For the production of lyophilized protein powders, LB agar plates supplemented with chloramphenicol (30 μg/mL) were streaked with E. coli containing a desired B. megaterium P450-BM3 variant in an IPTG-inducible vector. The plates were grown at 37° C. for 16 hrs before single clones were selected to inoculate a 15 mL Falcon™ tube (Fisher) containing TB media (3 mL) supplemented with chloramphenicol (30 μg/mL). The tube was shaken at 200 rpm, 30° C., and 85% humidity for 20-24 h to grow the cultures to saturation. Then, 2.5 mL of the overnight culture was used to inoculate sterile 1 L flasks containing TB medium (250 mL) supplemented with chloramphenicol (30 μg/mL), trace element solution (as described above), and 0.05 g/L ammonium iron (III) citrate. After being shaken at 250 rpm, 30° C., and 85% humidity to an OD600 of 0.8-1.2, P450 expression was induced by addition of IPTG (500 uM) and the heme precursor 5-aminolevulinic acid (5-ALA) to a final concentration of 500 uM. The cultures were grown for additional 20-24 hours and centrifuged in pre-weighed 250 mL centrifuge bottles for 20 minutes at 4000 rpm, 4° C. The supernatants were discarded, and the centrifuge bottles containing cell pellets were weighed. The pellets were resuspended in 50 mM potassium phosphate buffer with 2 mM DTT, pH 8.0 (5 mL of buffer per gram of cell pellet). The cells were lysed using a microfluidizer homogenizer, and the suspensions of cells and lysate were collected in sterile 50 mL centrifuge tubes. The samples were centrifuged for 30 minutes at 10,000 rpm, 4° C. The clarified lysate was collected into a plastic petri plate and frozen at −80° C. prior to lyophilization. The enzyme-containing lysates were lyophilized using standard methods known in the art.
Enzyme stocks (˜12 μM) were prepared by dissolving ˜20 mg of each enzyme in 100 mM potassium phosphate buffer, pH 8.0 (1 mL). The concentration of each enzyme stock solution was determined by the UV-visible absorption spectroscopy (after centrifugation to remove particulates) and diluted to standardize at 12 μM heme protein. Substrate solutions were prepared by dissolving each substrate in DMSO to reach a final concentration of 20 mM or 40 mM. Reaction mix (235 μL) followed by enzyme solution (50 μL) was added to the plates. The substrate stock solution was added to the enzyme solutions (15 μL at the two different concentrations). Each reaction contained 100 mM potassium phosphate, 1.0 mM NADP+, 25 mM glucose, 0.5 mg/mL glucose dehydrogenase, 5% DMSO and substrate at 1 or 2 mM. Loratadine, imatinib, and gefitinib (See, FIG. 1) were selected as substrates in addition to diclofenac to validate improved BM3 variants. The reactions were shaken at 450 rpm at 30° C. over 24 hours. All reactions were diluted with acetonitrile to a final concentration of 0.5 mM substrate. The plates were then centrifuged at 3,000 g for 1 hour at 20° C. The supernatant was diluted 1:1 with acetonitrile, filtered using a 0.4 micron filter, and analyzed by UPLC-MS.
For UPLC-MS analysis, the quenched and filtered reactions were transferred to 96-well HTP plates for analysis by UPLC on a Waters Acquity H-class system equipped with an autosampler. 1 uL of quenched sample was injected onto an Acquity UPLC HSS T3 column, 100 Å, (1.8 um; 2.1×100 mm). […] Column eluent was monitored by PDA (200-600 nm) prior to MS analysis in positive ESI mode (desolvation temperature 350° C., 3.25 kV spray voltage, cone voltage 25V). […]

[6] = fold improvement over parent MCYP-1.2-A12

Molecule	% Conv. [1]	TON [1]	% Conv. [2]	TON [2]	% Conv. [3]	TON [3]	% Conv. [4]	TON [4]	performance (% conversion at 1 mM substrate loading) over the substrates screened, in words [5]	FIOPC (A12) [1, 6]	FIOPC (A12) [2, 6]	FIOPC (A12) [3, 6]	FIOPC (A12) [4, 6]
SEQ ID NO: 6: P450-BM3 parental backbone from the commercially available MCYP panel (MCYP-0343; Codexis) (protein, P450_BM3) MTIKEMPQPKTFGELKNLPLLNTDKPVQALMKIADELGEIFKFEAPGCVTRYLSSQRLIKEACDESRFDKNLSQALKFARDFLGDGLFTSWTHEINWKKAHNILLPSFSQQAMKGYHAMMVDIAVQLVQKWERLNADEHIEVSEDMTRLTLDTIGLCGFNYRFNSFYRDQPHPFIISMVRALDEVMNKLQRANPDDPAYDENKRQCQEDIKVMNDLVDKIIADRKARGEQSDDLLTQMLNGKDPETGEPLDDGNISYQIITFLIAGHETTSGLLSFALYFLVKNPHVLQKVAEEAARVLVDPVPSYKQVKQLKYVGMVLNEALRLWPTAPAFSLYAKEDTVLGGEYPLEKGDEVMVLIPQLHRDKTIWGDDVEEFRPERFENPSAIPQHAFKPFGNGQRACIGQQFALHEATLVLGMMLKHFDFEDHTNYELDIKETLTLKPEGFVVKAKSKKIPLGGIPSPSTEQSAKKVRKKAENAHNTPLLVLYGSNMGTAEGTARDLADIAMSKGFAPQVATLDSHAGNLPREGAVLIVTASYNGHPPDNAKQFVDWLDQASADEVKGVRYSVFGCGDKNWATTYQKVPAFIDETLAAKGAENIADRGEADASDDFEGTYEEWREHMWSDVAAYFNLDIENSEDNKSTLSLQFVDSAADMPLAKMHGAFSTNVVASKELQQPGSARSTRHLEIELPKEASYQEGDHLGVIPRNYEGIVNRVTARFGLDASQQIRLEAEEEKLAHLPLAKTVSVEELLQYVELQDPVTRTQLRAMAAKTVCPPHKVELEALLEKQAYKEQVLAKRLTMLELLEKYPACEMKFSEFIALLPSIRPRYYSISSSPRVDEKQASITVSVVSGEAWSGYGEYKGIASNYLAELQEGDTITCFISTPQSEFTLPKDPETPLIMVGPGTGVAPFRGFVQARKQLKEQGQSLGEAHLYFGCRSPHEDYLYQEELENAQSEGIITLHTAFSRMPNQPKTYVQHVMEQDGKKLIELLDQGAHFYICGDGSQMAPAVEATLMKSYADVHQVSEADARLWLQQLEEKGRYAKDVWAG	++ (5.01-10.00)	‡‡ (1001-5000)	+ (0-5.00)	‡ (0-1000)	+ (0-5.00)	‡‡ (1001-5000)	++ (5.01-10.00)	‡‡ (1001-5000)	low activity for each substrate screened	–	–	–	–
Variant 16: P450-BM3 variant of SEQ ID NO: 6: K32R; C48S; Y52F; G115R; L216Y; D232H; E349K; M491A; T577A; E619D; A627S; D722S (protein, P450_BM3, C48S; Y52F; G115R; L216Y; D232H; E349K; M491A; T577A; E619D; A627S; D722S) MTIKEMPQPKTFGELKNLPLLNTDKPVQALMRIADELGEIFKFEAPGSVTRFLSSQRLIKEACDESRFDKNLSQALKFARDFLGDGLFTSWTHEINWKKAHNILLPSFSQQAMKRYHAMMVDIAVQLVQKWERLNADEHIEVSEDMTRLTLDTIGLCGFNYRFNSFYRDQPHPFIISMVRALDEVMNKLQRANPDDPAYDENKRQCQEDIKVMNDYVDKIIADRKARGEQSHDLLTQMLNGKDPETGEPLDDGNISYQIITFLIAGHETTSGLLSFALYFLVKNPHVLQKVAEEAARVLVDPVPSYKQVKQLKYVGMVLNEALRLWPTAPAFSLYAKEDTVLGGEYPLKKGDEVMVLIPQLHRDKTIWGDDVEEFRPERFENPSAIPQHAFKPFGNGQRACIGQQFALHEATLVLGMMLKHFDFEDHTNYELDIKETLTLKPEGFVVKAKSKKIPLGGIPSPSTEQSAKKVRKKAENAHNTPLLVLYGSNAGTAEGTARDLADIAMSKGFAPQVATLDSHAGNLPREGAVLIVTASYNGHPPDNAKQFVDWLDQASADEVKGVRYSVFGCGDKNWAATYQKVPAFIDETLAAKGAENIADRGEADASDDFEGTYEEWRDHMWSDVASYFNLDIENSEDNKSTLSLQFVDSAADMPLAKMHGAFSTNVVASKELQQPGSARSTRHLEIELPKEASYQEGDHLGVIPRNYEGIVNRVTARFGLSASQQIRLEAEEEKLAHLPLAKTVSVEELLQYVELQDPVTRTQLRAMAAKTVCPPHKVELEALLEKQAYKEQVLAKRLTMLELLEKYPACEMKFSEFIALLPSIRPRYYSISSSPRVDEKQASITVSVVSGEAWSGYGEYKGIASNYLAELQEGDTITCFISTPQSEFTLPKDPETPLIMVGPGTGVAPFRGFVQARKQLKEQGQSLGEAHLYFGCRSPHEDYLYQEELENAQSEGIITLHTAFSRMPNQPKTYVQHVMEQDGKKLIELLDQGAHFYICGDGSQMAPAVEATLMKSYADVHQVSEADARLWLQQLEEKGRYAKDVWAG	++++ (15.01-20.00)	‡‡‡‡ (10000-50000)	+ (0-5.00)	‡ (0-1000)	++++ (15.01-20.00)	‡‡‡‡ (10000-50000)	++++ (15.01-20.00)	‡‡‡‡ (10000-50000)	improved and significant activity for three out of four substrates screened	* (0.0-3.0)	* (0.0-3.0)	**** (10.01-15.00)	**** (10.01-15.00)
